The subject of data set [1] is T1, 4′-Demethyl-4-[acetyl-(H-Cys-βAla-Arg-Arg-Met-Lys-Trp-Lys-Lys-NH2)]epipodophyllotoxin.
T1 sequence: CRRMKWKK

The test system of data set [2] is T2, 4-[Succinimidopropionoyl-(H-Cys-βAla-Arg-Arg-Met-Lys-Trp-Lys-Lys-NH2)]epipodophyllotoxin.
T2 sequence: CRRMKWKK

In data set [3] the test system is T3, H-βAla-Arg-Arg-Met-Lys-Trp-Lys-Lys-NH2.
T3 sequence: RRMKWKK

The test system of data set [4] is T4, 4-[Succinimidopropionoyl-(H-Cys-βAla-Arg-Arg-Met-Lys-Trp-Lys-Lys-NH2)]podophyllotoxin.
T4 sequence: CRRMKWKK

The test system of data set [5] is T5, 4′-Demethyl-4-[4″-aminoanilino-(succinimidopropionoyl)-(H-Cys-bAla-Arg-Arg-Met-Lys-Trp-Lys-Lys-NH2)]-epipodophyllotoxin.
T5 sequence: CRRMKWKK

Consider “purified recombinant human topoisomerase II”, for which the “Activity observed (topoisomerase II cleavage and relaxation assays on plasmid DNA)” value was “IC” in data set [1]; “IC” in data set [2]; “-” in data set [3]; “-” in data set [4]; “I” in data set [5].
